The record followed here is US20160152729A1 (Novo Nordisk, published 2016).

Some results are limits rather than exact numbers.

Assay [1] addresses T1, human TFPIα (human, UniProt P10646 29-304).
T1 construct: recombinant full-length TFPIα in the assays; also called TFPI alpha; full-length TFPIα
In words: SPR Biacore T200; TFPIα held by captured mAb 2F48. (In general: SPR reads the build-up and loss of mass on a sensor chip optically.)

The target of assay [2] is T1, human TFPIα. In words: SPR Biacore T200; TFPIα held by captured mAb 2F22.
The target of assay [3] is T1, human TFPIα. In words: SPR Biacore T200; antibody captured on anti-human IgG Fc; TFPI as analyte; 1:1 model. The method, then:
(§1) Binding interaction data were obtained by means of Surface Plasmon Resonance in a Biacore T200 instrument. […] chip (GE Healthcare) in flow-cells 1-4 using the amine coupling protocol available with the Biacore T-200 control software version 2.0 (GE Healthcare) and the reagents provided with the Amine Coupling Kit (GE Healthcare). […] Different concentrations of human TFPIα or TFPI (1-79) were tested by diluting the sample in running buffer (10 mM HEPES, pH 7.4, 300 mM NaCl, 5 mM CaCl₂, 0.05% Surfactant P20, 1 mg/ml BSA). Each sample was assayed using 300 seconds of contact time followed by 420-600 seconds of dissociation time at 30 μl/min flow rate. A buffer blank was also assayed. The sensor surface was regenerated with 10 mM Glycine pH 1.7 either for 180 sec at 30 μl/min flow rate or with two cycles each of 30 seconds at 30 μl/min flow rate.
(§2) The Biacore T200 Evaluation software (version 2.0) was used to analyse the data. Determination of binding constants (kₐ, kd, KD) was obtained assuming a 1:1 interaction of TFPI and the monoclonal antibody of interest.

Assay [4] addresses T2, human TFPI (1-79) (human, UniProt P10646 29-107).
T2 construct: Acidic N-terminal region and KPI-1 domain
The description is as above. The method, then: as §1, §2

B1: FXa (enzyme)
chain 1: ANSFLEEMKKGHLERECMEETCSYEEAREVFEDSDKTNEFWNKYKDGDQCETSPCQNQGKCKDGLGEYTCTCLEGFEGKNCELFTRKLCSLDNGDCDQFCHEEQNSVVCSCARGYTLADNGKACIPTGPYPCGKQTLER
chain 2: IVGGQECKDGECPWQALLINEENEGFCGGTILSEFYILTAAHCLYQAKRFKVRVGDRNTEQEEGGEAVHEVEVVIKHNRFTKETYDFDIAVLRLKTPITFRMNVAPACLPERDWAESTLMTQKTGIVSGFGRTHEKGRQSTRLKMLEVPYVDRNSCKLSSSFIITQNMFCAGYDTKQEDACQGDSGGPHVTRFKDTYFVTGIVSWGEGCARKGKYGIYTKVTAFLKWIDRSMKTRGLPKAKSHAPEVITSSPLK
Consider B1, for which the entries for the “fold decrease of the affinity for TFPI to FXa, against TFPI bound to mAb 4F110” value in assay [1] and in assay [2] were under 10 fold and over 30 fold, respectively.

B2: mAb 0294 (antibody, human IgG4 S228P, kappa, V domains shown)
VH: QVQLKQSGPGLVQPSQSLSITCTVSGFSLTNYGVHWVRQSPGKGLEWLAVIWRGGSIDYNAAFMSRLSITKDNSKSQVFFKMNSLQADDTAIYYCAKNSHGNYVGYAMDYWGQGTSVTVSS
VL: GIVMTQSQKFMSTTVGDRVSITCKASQSVGPAVAWYQQKPGQSPKLLIYSASNRYTGVPDRFTGSGSGADFTLTISNLHSEDLADYFCQQYTSYPTFGGGTKLEIKR
notes: Murine-human chimera of mAb 2F22, human IgG4 (S241P) constant region, human kappa; also called chimeric mAb 2F22
Usually Kd stands for the constant that tells how readily two partners part at equilibrium. Take B2: the Kd in assay [3] came out at 0.46 nM; in assay [4] it was 0.27 nM.
